The text below walks through data of patent publication US11001824 (UNIVERSITY OF GEORGIA RESEARCH FOUNDATION, dated 2021).

Substitutions are numbered along the chain they refer to. Names and notes keep the numbering of the source.

For experiment [1], the target named is T1, denatured bovine pancreatic Ribonuclease B (bovine, UniProt P61823 27-150).
T1 construct: mature; also called dRNase B; denatured RNase B
T1 sequence: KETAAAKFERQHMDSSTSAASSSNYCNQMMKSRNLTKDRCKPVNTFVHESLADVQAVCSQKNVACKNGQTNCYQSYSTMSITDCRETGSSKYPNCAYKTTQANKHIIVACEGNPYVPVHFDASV
In words: SPR (Biacore 3000), dRNase B immobilised on CM5; calculated from KD.
Protocol: Steady-state binding kinetics using a bimolecular interaction model was determined using a Biacore 3000 instrument.
(§1) Using a similar strategy, denatured RNase B was immobilized on a CM-5 sensor chip and serially-diluted concentrations of wtPNGase F, D60A, R911, and R911 C60A were passed over the sensor surface, while binding kinetics were measured.
Dissociation (K_D) and off-rate constants ($koff$) for the interaction between denatured glycoprotein RNase B (dRNase B) with PNGase F mutagenized clones as determined by surface plasmon resonance. Kinetic data s as determined with dRNase B as immobilized ligand on CM5 sensor chip and PNGase F clone analytes.

The target of experiment [2] is T1, denatured bovine pancreatic …. Kind of experiment: SPR (Biacore 3000), dRNase B immobilised on CM5. (SPR reads the build-up and loss of mass on a sensor chip optically.)
Experiment [3] has the same target. In words: experimental binding free energy from SPR with dRNase B, relative to D60A.
Experiment [4] shares this target. Kind of experiment: SPR (Biacore 3000), dRNase B immobilised on CM5, steady state.
Protocol: A high-density surface was prepared with sufficient ligand coupling to yield a theoretical $RMAX$ of ~3000 RU. To assess the impact of the D60C mutation in R911 relative to wtPNGase F, the R911 C60A mutant was also evaluated. Steady-state binding kinetics using a bimolecular interaction model was determined using a Biacore 3000 instrument.
as §1
Dissociation (K_D) and off-rate constants ($koff$) for the interaction between denatured glycoprotein RNase B (dRNase B) with PNGase F mutagenized clones as determined by surface plasmon resonance.
The target is the same in experiment [5]. In words: experimental binding free energy from SPR with denatured RNase B.
The target of experiment [6] is T2, RNase B deglycosylated with PNGase F (bovine, UniProt P61823 27-150).
T2 construct: mature; also called deglycosylated RNase B
T2 sequence: T1 sequence with N34D
Kind of experiment: R911 affinity chromatography.

The next experiment deals with T3, Histone H2A type 2-C (human).
T3 construct: From MCF7 cell extract; also called H2A2C
Kind of experiment: R911 affinity column, MCF7 cell extract, chitobiose elution, LC-MS/MS.

A further experiment deals with T4, Histone H2A.x (human, UniProt P16104 2-143).
T4 construct: From MCF7 cell extract
The experiment is described as above.

The next experiment deals with T5, Histone H2A type 1-B/E (human).
T5 construct: From MCF7 cell extract; also called H2A1B
The experiment is described as above.

In a further experiment the target is T6, Histone H2A.Z (human).
T6 construct: From MCF7 cell extract
The description is as above.

T6 sequence (chain, as listed by the source limits assumed): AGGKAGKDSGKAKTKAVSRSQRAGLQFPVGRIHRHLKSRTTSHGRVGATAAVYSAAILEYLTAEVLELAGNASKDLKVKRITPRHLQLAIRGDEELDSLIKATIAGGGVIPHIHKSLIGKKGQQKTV
Protocol for Histone H2A type 1-B/E: (§2) Cell extract (100 µg) was loaded onto a R911 affinity column and then competitively eluted with free chitobiose in the binding buffer, instead of the standard elution buffer (FIG. 37).
(§3) Human breast cancer MCF7 cells were cultured in DMEM media supplemented with 10% fetal bovine serum. Cells were passaged and harvested using trypsin-free cell release. Approximately, 2.3 ×10^7 cells were harvested and washed 3× with 10 mL of phosphate buffered saline at 4° C. by centrifugation at 1000×g for 5 minutes. The cell pellet was resuspended in 1.5 mL of filter sterilized cell lysis buffer (10 mM Tris-HCl, pH 7.5, 150 mM NaCl, 1% v/v Nonidet P-40) with EDTA-free protease inhibitor cocktail (Roche Diagnostics, Mannheim, Germany) and incubated on ice for 30 minutes.[17] The cells were ultra-sonicated (Misonix Ultrasonic Liquid Processor Model S-4000) at intervals of 15 seconds for a total of 2 minutes, with a 15 second pause between treatments (30% amplitude). […] The supernatant containing the MCF7 cell extract was stored at −80° C. in 50 µL aliquots. […] An aliquoted MCF7 cell extract stock was thawed on ice and diluted to 1 mg/mL using 10 mM HEPES, 10 mM NaCl, at pH 7.4.
(§4) LC-MS/MS Protein Identification of R911 Lectenz® Affinity Chromatography Eluted Samples MCF7 cell extract and proteins eluted from the R911 Lectenz® affinity column were reduced, alkylated and digested with sequence grade trypsin (Promega) using a standard in-solution digest protocol.[30] The samples were acidified with 1% trifluroacetic acid and desalting was performed using C18 spin columns (Silica C18, The Nest Group, Inc.).
Protocol for Histone H2A type 2-C: as §2, §3, §4
Protocol for Histone H2A.Z: as §2, §3, §4
Protocol for Histone H2A.x: as §2, §3, §4

B1: wild-type PNGase F from Flavobacterium meningosepticum (enzyme)
chain: GIPAPADNTVNIKTFDKVKNAFGDGLSQSAEGTFTFPADVTAVKTIKMFIKNECPNKTCDEWDRYANVYVKNKTTGEWYEIGRFITPYWVGTEKLPRGLEIDVTDFKSLLSGNTELKIYTETWLAKGREYSVDFDIVYGTPDYKYSAVVPVVQYNKSSIDGVPYGKAHTLALKKNIQLPTNTEKAYLRTTISGWGHAKPYDAGSRGCAEWCFRTHTIAINNSNTFQHQLGALGCSANPINNQSPGNWTPDRAGWCPGMAVPTRIDVLNNSLIGSTFSYEYKFQNWTNNGTNGDAFYAISSFVIAKSNTPISAPVVTNLDPHHHHHH
notes: also called wtPNGase F; 1PNF
As for B1, the ΔGBIND-EXP in [1] is -7.1 kcal/mol. In addition, in experiment [2], the koff (usually the rate constant with which the complex falls apart) amounted to 0.01 s⁻¹. Besides, the “ΔΔGBIND-EXP (relative to D60A)” value in [3] is 0.5 kcal/mol. Binding in experiment [4] was put at a Kd of 6400 nM.

B2: PNGase F D60A single point mutant (enzyme)
chain: B1 chain with D63A
notes: also called D60A control clone
On to B2, for which, in experiment [1], the ΔGBIND-EXP is -7.61 kcal/mol. In [2], the “Relative Affinity Enhancement (against D60A)” value (“Relative Affinity Enhancement” below) is 1 fold, the “Relative Off-Rate Enhancement (against D60A)” value (shortened to “Relative Off-Rate Enhancement”) worked out at 1 fold and the koff stood at 0.43 s⁻¹. Besides, in experiment [4], the Kd (usually the concentration at which binding is half-saturated) amounted to 2700 nM.

B3: PNGase F clone R911 (D57L, D60C, I156L, G192I, E206S, R248W) (designed binder)
chain: B1 chain with D60L, D63C, I159L, G195I, E209S, R251W
On to B3, for which, in [1], the ΔGBIND-EXP is -8.99 kcal/mol. For the same molecule, the “Relative Affinity Enhancement” value in experiment [2] was 10 fold. Moreover, the “Relative Off-Rate Enhancement” value in experiment [2] is 84 fold. This molecule also returned a koff in experiment [2] of 0.0051 s⁻¹. In addition, in [3], the “ΔΔGBIND-EXP (relative to D60A)” value was -1.9 kcal/mol. Also, the “ΔΔGBIND-EXP (relative to R911 C60A)” value in experiment [5] is -1.2 kcal/mol. Also, the binding result was “no binding” in experiment [6]; “binds” with Histone H2A type 2-C; “binds” in the experiment with Histone H2A.x; “binds” with Histone H2A type 1-B/E; “binds” with Histone H2A.Z. For the same molecule, in [4], the affinity, expressed as Kd, was 260 nM.

B4: PNGase F clone R911 C60A (D57L, D60A, I156L, G192I, E206S, R248W) (designed binder)
chain: B1 chain with D60L, D63A, I159L, G195I, E209S, R251W
As to B4, in experiment [1], the ΔGBIND-EXP was -7.77 kcal/mol. In addition, in experiment [2], the “Relative Affinity Enhancement” value was 1.3 fold, the “Relative Off-Rate Enhancement” value was found to be 35 fold and the koff was 0.012 s⁻¹. Also, the “ΔΔGBIND-EXP (relative to D60A)” value in experiment [3] is -0.7 kcal/mol. Also, the Kd in [4] amounted to 2000 nM.
